Results as given in IntAct's records for PubMed 18728196.

B1: Anti-sigma factor RshA (Mycobacterium tuberculosis (strain ATCC 25618 / P9WJ69 (parent)
chain: MSENCGPTDAHADHDDSHGGMGCAEVIAEVWTLLDGECTPETRERLRRHLEACPGCLRHYGLEERIKALIGTKCRGDRAPEGLRERLRLEIRRTTIIRGGP

Variants of: B1
Conditions: with pstp_myctu pstP

| Variant | effect of a mutation on the interaction |
| --- | --- |
| MSENCGPTDAHADHDDSHGGMGCAEVIAEVWTLLDGECTPETRERLRRHLEACPGCLRHYGLEERIKALIGTKCRGDRAPEGLRERLRLEIRRATIIRGGP | disrupting interaction |
